In article PMC11242853, “The Antimicrobial Activity of Human Defensins at Physiological Non-Permeabilizing Concentrations Is Caused by the Inhibition of the Plasma Membrane H^+-ATPases” (International Journal of Molecular Sciences, 2024):

Experiments:
[1] = system: C. albicans cells; experiment: Oxygen consumption measurement (polarographic), C. albicans; assay type: cell-based, Candida albicans; settings: after 30 min; defensins 2 x NPIC, human lactoferrin 20 μM, piericidin A 32 µM; preincubated 15 min at 37 °C; untreated cells 94% ± 2%; means ± SD, three experiments
Description: (§1) Oxygen consumption by C. albicans and P. aeruginosa cells was determined by polarographically using a biological oxygen monitor (dual digital-model 20; Rank Brothers Ltd., Cambridge, UK) at 25 °C. The apparatus consisted of a twin water-jacketed closed sample chamber, which enabled a control experiment to be conducted concurrently. The cells were grown to mid-log phase in SDB (C. albicans) or TSB (P. aeruginosa), washed twice in Tris buffer, and resuspended in the same buffer. Cell suspensions (approximately 10^7 cells/mL) were preincubated with defensins (2 x NPIC), human lactoferrin (20 μM), or piericidin A (32 μM) for 15 min at 37 °C. Oxygen consumption was recorded at 5-min intervals for a period of 30 min. Three independent experiments were performed, and the data are means ± SD.

[2] = system: Pma1p H^+-ATPase; settings: Table 2; no reference given
Description: A whole-cell proton transport assay was used to evaluate the possible inhibition of the fungal Pma1p H^+-ATPase by defensins.
To measure proton pumping from Pma1p H^+-ATPase activity, a glucose-induced acid extrusion assay was performed as previously described with modifications. Briefly, cultures of C. albicans cells were grown to mid-log phase in SDB medium and washed twice in 100 mM Tris-HCl (pH 8.0). The cells were then resuspended in 50 mM KCl and maintained for 18 h at 4 °C to reduce metabolic activity to a minimum (starvation conditions). To determine external acidification, starved cells (approximately 10^7 cells/mL) were incubated for 15 min at 37 °C in the presence or absence of the defensins (2 x NPIC). Cells incubated with 20 µM human lactoferrin or 0.5 µM BM2 peptide were used as positive controls. The initial pH of the cell suspension was adjusted to approximately pH 6.8 with HCl, and glucose (final concentration of 2.5 mM) was immediately added to the cell suspension. The pH of the medium was recorded at 5-min intervals for 20 min using a SevenMulti S50-K pH meter (Mettler-Toledo, Greifensee, Switzerland) with a calibrated electrode (InLab 413, Mettler-Toledo) under constant stirring. Each experiment was repeated three times in an independent manner.

[3] = system: C. albicans cells; experiment: Membrane potential monitoring with DiBAC4(3), flow cytometry; assay type: cell-based, Candida albicans; settings: peptides at NPIC, hLf 5 μM, BM2 0.25 μM; DiBAC4(3) 1 µg/mL
Description: The membrane potential-sensitive probe DiBAC4(3) was used to monitor the transmembrane electrical potential of C. albicans cells as previously described with slight modifications. Briefly, cells were harvested from mid-log phase cultures via centrifugation and suspended in Tris buffer. The cell suspension was adjusted to 10^6 cells/mL and then incubated with DiBAC4(3) at a final concentration of 1 µg/mL for 30 min. Fluorescence was measured using a CytoFLEX S flow cytometer (Beckman Coulter) with excitation at 561 nm and emission at 690/50 nm. For each treatment, 5000 events were counted per experiment with an exposure time of 1000 ms. Results were analyzed using CytExpert 2.1 Acquisition software. As positive controls, human lactoferrin and BM2 peptide were used. Three independent experiments were performed and data are expressed as means ± SD.

[4] = system: Pseudomonas aeruginosa PAO1; experiment: Antimicrobial spread-plate (CFU) killing assay, P. aeruginosa; assay type: cell-based
Description: To determine whether the above microbicidal concentrations exert a permeabilizing effect on fungal and bacterial membranes, the influx of the fluorescent nucleic acid-binding dye propidium iodide (PI) in cells incubated with the peptides was assessed. In cells, dye uptake reflects membrane permeabilization, as PI itself cannot permeate through an intact phospholipid bilayer. […] To select an antimicrobial but non-permeabilizing concentration of each peptide for further assays, we defined as a non-permeabilizing inhibitory concentration (NPIC) the antimicrobial inhibitory concentration (≤10% viable cells) that permeabilized ≤ 10% of cells incubated (90 min at 37 °C) in buffer solution.
Microbial susceptibility to the peptides was determined in a spread-plate assay as described previously. Briefly, cell suspensions (10^6 cells/mL) in Tris buffer (10 mM Tris-HCl, pH 7.4) were incubated for 90 min at 37 °C with 2-fold serial peptide dilutions. Peptide concentrations ranged from 0 to 2 μM. After incubation, the number of viable cells was determined by plating aliquots (100 μL) in duplicate on plates (SDA for C. albicans, TSA for P. aeruginosa, and M17G agarified medium for L. lactis) that had been dried for 30 min at room temperature in a laminar flow hood. Plates were incubated for 24–48 h at 30 °C (C. albicans and L. lactis) or 24 h at 37 °C (P. aeruginosa). Dilutions yielding 50–200 colonies were counted. Cell viability values, expressed as colony-forming units (CFUs), were calculated relative to the incubation without added peptides and represent the means ± standard deviation (SD) from duplicates of three independent experiments. For inhibition assays, unless otherwise noted, cell suspensions were preincubated (15 min at 37 °C) with the appropriate inhibitor prior to the addition of peptides, but the inhibitor was present throughout the incubation period with the peptide (90 min at 37 °C). Other specific experimental conditions are described as appropriate. […]

[5] = system: C. albicans cells; experiment: Total cellular ATP (BacTiter-Glo); assay type: cell-based, Candida albicans; settings: defensins at NPIC, human lactoferrin 5 μM, BM2 peptide 0.25 μM; 10^6 cells/mL; BacTiter-Glo luminescence
Description: Total ATP was measured using the BacTiter-Glo^TM Microbial Cell Viability Assay (Promega Co., Madison, WI, USA) according to the manufacturer’s instructions. […] Aliquots (100 µL) were incubated (90 min at 37 °C) with human defensins (NPICs). Human lactoferrin (5 μM) or BM2 peptide (0.25 μM) was used as positive controls. One hundred microliters of the incubation mixture was transferred to an opaque 96-well plate, mixed with an equal volume of BacTiter-Glo^TM reagent, and incubated for 15 min in the dark. The reagent uses a thermostable luciferase to generate luminescence in an ATP-dependent manner. The emitted luminescence was detected using a Varioskan Flash multimode reader (Thermo Scientific, Waltham, MA, USA) with a 10 s shaking and 1 s integration time. A calibration curve was generated for each experiment with ATP standards ranging from 1 to 1000 nM. All assays were performed at least three times in duplicate.

[6] = system: P. aeruginosa cells; experiment: Oxygen consumption measurement (polarographic), P. aeruginosa; assay type: cell-based, Pseudomonas aeruginosa; settings: after 30 min; defensins 2 x NPIC, human lactoferrin 20 μM, piericidin A 32 µM; preincubated 15 min at 37 °C; untreated cells 83% ± 2%; means ± SD, three experiments
Description: as §1

B1: human lactoferrin: Recombinant human apo-lactoferrin (hLf), 691 amino acid γ-core protein that inhibits microbial PM H+-ATPases; control (protein, UniProt P02788 20-710, looked up)
Lactotransferrin: GRRRSVQWCAVSQPEATKCFQWQRNMRKVRGPPVSCIKRDSPIQCIQAIAENRADAVTLDGGFIYEAGLAPYKLRPVAAEVYGTERQPRTHYYAVAVVKKGGSFQLNELQGLKSCHTGLRRTAGWNVPIGTLRPFLNWTGPPEPIEAAVARFFSASCVPGADKGQFPNLCRLCAGTGENKCAFSSQEPYFSYSGAFKCLRDGAGDVAFIRESTVFEDLSDEAERDEYELLCPDNTRKPVDKFKDCHLARVPSHAVVARSVNGKEDAIWNLLRQAQEKFGKDKSPKFQLFGSPSGQKDLLFKDSAIGFSRVPPRIDSGLYLGSGYFTAIQNLRKSEEEVAARRARVVWCAVGEQELRKCNQWSGLSEGSVTCSSASTTEDCIALVLKGEADAMSLDGGYVYTAGKCGLVPVLAENYKSQQSSDPDPNCVDRPVEGYLAVAVVRRSDTSLTWNSVKGKKSCHTAVDRTAGWNIPMGLLFNQTGSCKFDEYFSQSCAPGSDPRSNLCALCIGDEQGENKCVPNSNERYYGYTGAFRCLAENAGDVAFVKDVTVLQNTDGNNNEAWAKDLKLADFALLCLDGKRKPVTEARSCHLAMAPNHAVVSRMDKVERLKQVLLHQQAKFGRNGSDCPDKFCLFQSETKNLLFNDNTECLARLHGKTTYEKYLGPQYVAGITNLKKCSTSPLLEACEFLRK
modifications: apo form
notes: control
[1]
  oxygen consumption percentage of C. albicans: 90% ± 3%
[2]
  Inhibition of H^+-extrusion (yeast): Yes
[3]
  transmembrane electrical potential (DiBAC4(3) fluorescence): increase in DiBAC4(3) fluorescence
[4]; 50 mM KCl, defensins at NPIC, hLf 1 μM, colistin 4 μg/mL
  effect of high extracellular K+ on pseudomonacidal activity: decreased
[4]; antimicrobial concentration (≤10% viable cells) that permeabilized ≤10% of cells, 10^6 cells/mL, Tris buffer pH 7.4, 90 min at 37 °C, from Figure 1 data, duplicates of three experiments
  non-permeabilizing inhibitory concentration (NPIC), P. aeruginosa: 1 µM
[4]; preincubated 15 min at 37 °C with 50 µM CCCP at pH 7.4, peptides at NPIC
  effect of CCCP on bactericidal activity, P. aeruginosa: slightly reduced
[5]
  increase in ATP levels compared to the untreated control: ~ 6 fold
[6]
  O2 consumption of P. aeruginosa: 87% ± 2%
